How the values were obtained:
dimeric LDH-Htr [1] = experiment: MST, peptide binding to LDH-Htr; design: species or system human; details: 1.5 s MST on time, n = 3, labeled LDH-Htr 100 nM, 50 mM sodium phosphate pH 7.6, 100 mM NaCl, 0.01% Tween-20, LP-22 value 'estimated'
Procedure: MST measurements were performed on a NanoTemper Monolith NT.115 instrument (NanoTemper Technologies) using red dye–N-Hydroxysuccinimide fluorescent labeling. LDH-Htr purified to homogeneity was labeled with the Monolith red dye–N-Hydroxysuccinimide second-generation labeling dye (NanoTemper Technologies), according to the supplied protocol. Measurements were performed in 50 mM sodium phosphate, pH 7.6, and 100 mM NaCl containing 0.01% Tween-20 in standard-treated capillaries (NanoTemper Technologies). The final concentration of proteins in the assay was 100 nM. Ligands were titrated in 1:1 dilutions following manufacturer's recommendations. Experiments were performed in triplicates using 40% light-emitting diode power, high MST power, laser on time 20 s and laser off time 3 s. Peptides were evaluated for their thermophoretic pattern, and Kds were extracted from raw data at a 1.5 s MST on time following the manufacturer's instructions.

dimeric LDH-Htr [2] = experiment: WaterLOGSY NMR with LDH-Htr; format: binding, human; details: LDH-Htr 15 μM; LP-22 400 μM; 50 mM sodium phosphate pH 7.6, 100 mM NaCl, 10% heavy water; 277 K
Procedure: (§1) Human LDH-H (full length and truncated)-6-His proteins for 1D NMR were expressed and purified from E. coli, as described previously. All experiments were performed on an Ascend Avance III 600 MHz system equipped with a broadband cryoprobe (Bruker) following a previously described procedure ([16]).
(§2) For WaterLOGSY NMR studies, samples were prepared in 10% heavy water containing 50 mM sodium phosphate buffer, pH 7.6, and 100 mM NaCl. The concentration of LDHs was ranging from 15 to 20 μM of monomer. Ligand binding was detected using a WaterLOGSY ephogsygpno.2 avance-version sequence with a 1 s mixing time, 4096 scans were collected at 277 K to yield a 16 K points free induction decay. Water signal suppression was achieved using an excitation-sculpting scheme, and a 50 ms spinlock was used to suppress protein background signals.

tetrameric LDH-1 = experiment: WaterLOGSY NMR with LDH-1; format: binding, human; details: LDH-1 15 μM; LP-22 400 μM; 50 mM sodium phosphate pH 7.6, 100 mM NaCl, 10% heavy water; 277 K
Procedure: as §1, §2

tetrameric LDH-5 = tetrameric LDH-5 (Homo sapiens, UniProt P00338); experiment: nanoDSF thermal shift of LDH-5 with peptide; format: binding
dimeric LDH-Htr [3] = details: LDH-Htr 15 μM; peptide 500 μM; n = 3; 50 mM sodium phosphate, 100 mM NaCl, pH 7.6; stabilization
Procedure: Solutions of proteins (LDH-1, LDH-5, or LDH-Htr) with peptides were evaluated on a Tycho NT.6 device. Evaluations were performed in a 50 mM sodium phosphate and 100 mM NaCl (pH 7.6) buffer. According to standard manufacturer's procedures, samples were poured into capillaries and heated up to 95 °C in 3 min, while following fluorescence emission at 330 and 350 nm. Melting temperatures were extracted from the derivative of the 350/330 nm fluorescence ratios upon increasing temperature.

LDH-H variants [4] = experiment: Intrinsic tryptophan fluorescence spectra of variants; format: physicochemical, human; details: variant 1.3 μM; λexc 286 nm; n = 6; pH 7.6
Procedure: All spectrophotometric experiments were performed with opaque 96-well plates using a Spectramax m2e spectrophotometer (Molecular Devices) following previously described procedures ([16]).
Full tryptophan fluorescence spectra were recorded using an excitation wavelength of 286 nm and recording the emission spectra from 320 to 400 nm at room temperature. The raw fluorescence of each experiment was subtracted to a corresponding control experiment without the protein. […] For dissociation in subunits, increasing amounts of guanidinium hydrochloride ranging from 0.3 to 2 M were put in contact with the studied proteins (1.3 μM), and fluorescence spectra were recorded afterward.

LDH-H variants [5] = experiment: nanoDSF thermal denaturation of LDH-H variants; format: physicochemical, human; details: for nanoDSF denaturation pattern / Ratio 350/330 nm / Tm: n = 6; for nanoDSF denaturation pattern: in words; for Ratio 350/330 nm: nanoDSF fluorescence emission ratio; for Ratio 350/330 nm / Tm: pH 7.6; for Tm: Tycho NT.6, protein 25 to 65 μM, 50 mM sodium phosphate, 100 mM NaCl, 20% glycerol, mean ± SEM
Procedure: Solutions of proteins (LDH-H, LDH-Htr or variants), stored in a 50 mM sodium phosphate, 100 mM NaCl, and 20% glycerol, pH 7.6, were evaluated on a Tycho NT.6 device (NanoTemper Technologies) using concentrations ranging from 25 to 65 μM.

LDH-H oligomeric state = experiment: Mass photometry of LDH-H, LDH-Htr and variants; format: physicochemical, human; details: for Oligomeric state in solution: in words; for Molecular weight (main oligomeric state): mean ± SD, one measurement, repeated at least 3 times with similar results, 1 μl of 1 μM stock into 16 μl PBS; for Relative intensity of dimer peak / Relative intensity of tetramer peak / Molecular weight of dimer peak / Molecular weight of tetramer peak: peak label in figure; for Molecular weight of dimer peak: theoretical dimer 78 kDa (LDH-H), 73.2 kDa (LDH-Htr); for Molecular weight of tetramer peak: theoretical tetramer 155 kDa (LDH-H)
Procedure: Protein landing was recorded using a Refeyn OneMP (Refeyn Ltd) MP system by adding 1 μl of the protein stock solution (1 μM) directly into a 16 μl drop of filtered PBS solution. Movies were acquired for 60 s (6.000 frames) with the AcquireMP (version 2.1.1; Refeyn Ltd) software using standard settings. Data were analyzed using default settings on DiscoverMP (version 2.1.1; Refeyn Ltd) ([44]). Contrast-to-mass calibration was performed prior to the experiments using a mix of proteins with molecular weights of 66, 146, 480, and 1048 kDa.

Row | Molecule | Kd (dimeric LDH-Htr [1]) [µM] | WaterLOGSY saturation transfer with dimeric LDH-Htr (dimeric LDH-Htr [2]) | WaterLOGSY saturation transfer with tetrameric LDH-1 (tetrameric LDH-1) | Dependence of LDH destabilization on protein concentration (tetrameric LDH-5; nanoDSF, Fig. S2) | ΔTm of dimeric LDH-Htr (dimeric LDH-Htr [3]) [°C] | Tryptophan fluorescence intensity compared with LDH-1 (LDH-H variants [4]) | nanoDSF denaturation pattern (LDH-H variants [5]) | Ratio 350/330 nm (LDH-H variants [5]) | Tm (LDH-H variants [5]; nanoDSF) [°C] | Oligomeric state in solution (LDH-H oligomeric state) | Molecular weight (main oligomeric state) (LDH-H oligomeric state) [kDa] | Relative intensity of dimer peak (LDH-H oligomeric state) [%] | Relative intensity of tetramer peak (LDH-H oligomeric state) [%] | Molecular weight of dimer peak (LDH-H oligomeric state) [kDa] | Molecular weight of tetramer peak (LDH-H oligomeric state) [kDa] | Tm difference versus LDH-Htr (LDH-H variants [5]; nanoDSF, higher than LDH-Htr) [°C] | EC50 (tetrameric LDH-5; read-out: EC50 (destabilization of tetrameric LDH, ΔTm vs peptide concentration)) [µM]
1 | CSCC[C@H](NC(=O)[C@H](CCC(=O)O)NC(=O)CNC(=O)[C@H](CCCCN)NC(=O)[C@H](CC(C)C)NC(=O)[C@H](CCCCN)NC(=O)[C@H](CC(=O)O)NC(=O)[C@H](CCC(=O)O)NC(=O)[C@@H](N)CC(C)C)C(=O)N[C@@H](CCSC)C(=O)N[C@@H](CC(=O)O)C(=O)N[C@@H](CC(C)C)C(=O)N[C@@H](CCC(N)=O)C(=O)N[C@@H](Cc1c[nH]cn1)C(=O)NCC(=O)N[C@@H](CO)C(=O)N[C@@H](CC(C)C)C(=O)N[C@@H](Cc1ccccc1)C(=O)N[C@@H](CC(C)C)C(=O)N[C@@H](CCC(N)=O)C(=O)N[C@H](C(=O)N1CCC[C@H]1C(N)=O)[C@@H](C)O [LP-22] | 156 | undergoes a saturation transfer with dimeric LDH-Htr | not with the tetrameric LDH-1 | an increasing amount of subunit reverted the effect | 2.8 | – | – | – | – | – | – | – | – | – | – | – | –
2 | F72A: LDH-H recombinant alanine variant | – | – | – | – | – | decays in fluorescence intensity characteristic of the dimeric forms of LDHs | denaturation patterns comparable to dimeric LDH-Htr | 0.94 | 53.9 ± 0.1 | behaving mainly as dimers in solution | 70 ± 17 | 79 | 19 | 70 | 141 | – | –
3 | E62A: LDH-H recombinant alanine variant | – | – | – | – | – | decays in fluorescence intensity characteristic of the dimeric forms of LDHs | denaturation patterns comparable to dimeric LDH-Htr | 0.95 | 58.9 ± 0.1 | behaving mainly as dimers in solution | 77 ± 18 | 77 | – | 77 | 145 | – | –
4 | L71A: LDH-H recombinant alanine variant | – | – | – | – | – | – | a lower initial ratio and a red shift | 0.90 | 67.1 ± 0.1 | behaving as a mixture of tetramers and dimers | 148 ± 12 | 36 | 56 | 72 | 148 | 10 | –
5 | Ac-GEMMDLQHGSLFLQTP-NH2 [GP-16] | 240 | – | – | – | – | – | – | – | – | – | – | – | – | – | – | – | 262
